Results from US20150329642A1 (Genmab, published 2015).

B1: UniBody molecule of antibody 098 (other)
VH: QVQLVQSGAEVKKPGASVKVSCKASGYTFTNFGISWVRQAPGQGLEWMGWISAFNGHTDYSQKVQGRVTMTTDTSTSTAYMELRSLRSDDTAVFYCARSHYYGSGSPFDYWGQGTLVTVSS
VL: DIQMTQSPSSLSASVGDRVTITCRASQGISNWLAWYQQKPEKAPKSLIYAASSLQSGVPSRFSGSGSGTDFTLTISSLQPEDFATYYCHQYKSYPWTFGQGTKVEIK
B2: Uni-1016-005 (other)
VH: QVQLVQSGAEVKKPGSSVKVSCKASGGTFSSYGFGWVRQAPGQGLEWMGRISPILGIANYAQMFQGRVTITADKSTSTAYMELSSLRSEDTAVYYCARDVGYDWPDTFDIWGQGTMVIVSS
VL: DIQMTQSPSSLSASVGDRVTITCRASQGISSWLAWYQQKPEKAPKSLIYAASSLQSGVPSRFSGGGSGTDFTLTISSLQPEDFATYYCQQYNSFPPTFGQGTKVEIK
notes: also called UniBody molecule of antibody 005
B3: Uni-1016-045-TE (other)
VH: EVQLLESGGGLVQPGGSLRLSCAASGFTFSSYAMSWVRQAPGKGLEWVSVISGSGGITYYADSVKGRFTISRDNSKNTLYLQMNSLRAEDTAVYYCARDRGWGSDYWGQGTLVTVSS
VL: EIVLTQSPATLSLSPGERATLSCRASQSVSSYLAWYQQKPGQAPRLLIYDASNRATGIPARFSGSGSGTDFTLTISSLEPEDFAVYYCQQRSNWPFTFGPGTKVDIK
notes: also called UniBody molecule of antibody 045
B4: UniBody molecule of antibody 008 (other)
VH: EVQLVQSGAEVKKPGESLKISCKGSGYSFTSYWIGWVRQMPGKGLEWMGIIYPGDSETRYSPSFQGQVTISADKSISTAYLQWSSLKASDTAMYYCARQEITGEFDYWGQGTLVTVSS
VL: AIQLTQSPSSLSASVGDRVTITCRASQGISSALAWYQQKPGKAPKLLIYDASSLESGVPSRFSGSGSGTDFTLTISSLQPEDFATYYCQQFNSYPRTFGQGTKVEIK
B5: UniBody molecule of antibody 035 (other)
VH: EVQLVQSGAEVKKPGESLKISCKGSGYSFTSYWIGWVRQMPGKGLEWMGIIYPGDSDTRYSPSFQGQVTISADKSISTAYLQWNSLKASDTAMYYCARQEITGEFDYWGQGTLVTVSS
VL: AIQLTQSPSSLSASVGDRVTITCRASQGISSALAWYQQKPGKAPKLLIYDASSLESGVPSRFSGSGSGTDFTLTISSLQPEDFATYYCQQFNSYPMYTFGQGTKLEIK
B6: Uni-1016-069-TE (other)
VH: QVQLVQSGAEVKKPGASVKVSCETSGYTFTSYGISWVRQAPGHGLEWMGWISAYNGYTNYAQKLQGRVTMTTDTSTSTAYMELRSLRSDDTAVYYCARDLRGTNYFDYWGQGTLVTVSS
VL: DIQMTQSPSSVSASVGDRVTITCRASQGISNWLAWFQHKPGKAPKLLIYAASSLLSGVPSRFSGSGSGTDFTLTISSLQPEDFATYYCQQANSFPITFGQGTRLEIK
notes: also called UniBody molecule of antibody 069
B7: IgG1-1016-069-C220S (antibody, V domains shown)
VH: QVQLVQSGAEVKKPGASVKVSCETSGYTFTSYGISWVRQAPGHGLEWMGWISAYNGYTNYAQKLQGRVTMTTDTSTSTAYMELRSLRSDDTAVYYCARDLRGTNYFDYWGQGTLVTVSS
VL: DIQMTQSPSSVSASVGDRVTITCRASQGISNWLAWFQHKPGKAPKLLIYAASSLLSGVPSRFSGSGSGTDFTLTISSLQPEDFATYYCQQANSFPITFGQGTRLEIK
notes: human kappa; also called IgG1 C220S mutant of 069
B8: Uni-IgG1-1016-069 (antibody, V domains shown)
VH: QVQLVQSGAEVKKPGASVKVSCETSGYTFTSYGISWVRQAPGHGLEWMGWISAYNGYTNYAQKLQGRVTMTTDTSTSTAYMELRSLRSDDTAVYYCARDLRGTNYFDYWGQGTLVTVSS
VL: DIQMTQSPSSVSASVGDRVTITCRASQGISNWLAWFQHKPGKAPKLLIYAASSLLSGVPSRFSGSGSGTDFTLTISSLQPEDFATYYCQQANSFPITFGQGTRLEIK
notes: human kappa; also called Hinge deleted IgG1 (Uni-IgG1) of 069; UniBody-IgG1
B9: IgG1-1016-069 TH7Δ6-9 (antibody, V domains shown)
VH: QVQLVQSGAEVKKPGASVKVSCETSGYTFTSYGISWVRQAPGHGLEWMGWISAYNGYTNYAQKLQGRVTMTTDTSTSTAYMELRSLRSDDTAVYYCARDLRGTNYFDYWGQGTLVTVSS
VL: DIQMTQSPSSVSASVGDRVTITCRASQGISNWLAWFQHKPGKAPKLLIYAASSLLSGVPSRFSGSGSGTDFTLTISSLQPEDFATYYCQQANSFPITFGQGTRLEIK
notes: human kappa; also called IgG1 TH7Δ6-9 mutant of 069
B10: IgG1-1016-069-Hinge IgG2 (antibody, V domains shown)
VH: QVQLVQSGAEVKKPGASVKVSCETSGYTFTSYGISWVRQAPGHGLEWMGWISAYNGYTNYAQKLQGRVTMTTDTSTSTAYMELRSLRSDDTAVYYCARDLRGTNYFDYWGQGTLVTVSS
VL: DIQMTQSPSSVSASVGDRVTITCRASQGISNWLAWFQHKPGKAPKLLIYAASSLLSGVPSRFSGSGSGTDFTLTISSLQPEDFATYYCQQANSFPITFGQGTRLEIK
notes: human kappa; also called IgG1 Hinge-IgG2 variant of 069
B11: IgG1-1016-069-Hinge IgG3 (antibody, V domains shown)
VH: QVQLVQSGAEVKKPGASVKVSCETSGYTFTSYGISWVRQAPGHGLEWMGWISAYNGYTNYAQKLQGRVTMTTDTSTSTAYMELRSLRSDDTAVYYCARDLRGTNYFDYWGQGTLVTVSS
VL: DIQMTQSPSSVSASVGDRVTITCRASQGISNWLAWFQHKPGKAPKLLIYAASSLLSGVPSRFSGSGSGTDFTLTISSLQPEDFATYYCQQANSFPITFGQGTRLEIK
notes: also called IgG1 Hinge-IgG3 variant of 069
B12: IgG1-1016-069-ΔC220 (antibody, V domains shown)
VH: QVQLVQSGAEVKKPGASVKVSCETSGYTFTSYGISWVRQAPGHGLEWMGWISAYNGYTNYAQKLQGRVTMTTDTSTSTAYMELRSLRSDDTAVYYCARDLRGTNYFDYWGQGTLVTVSS
VL: DIQMTQSPSSVSASVGDRVTITCRASQGISNWLAWFQHKPGKAPKLLIYAASSLLSGVPSRFSGSGSGTDFTLTISSLQPEDFATYYCQQANSFPITFGQGTRLEIK
notes: human kappa; also called IgG1 ΔC220 mutant of 069
B13: IgG2-1016-069 (antibody, V domains shown)
VH: QVQLVQSGAEVKKPGASVKVSCETSGYTFTSYGISWVRQAPGHGLEWMGWISAYNGYTNYAQKLQGRVTMTTDTSTSTAYMELRSLRSDDTAVYYCARDLRGTNYFDYWGQGTLVTVSS
VL: DIQMTQSPSSVSASVGDRVTITCRASQGISNWLAWFQHKPGKAPKLLIYAASSLLSGVPSRFSGSGSGTDFTLTISSLQPEDFATYYCQQANSFPITFGQGTRLEIK
notes: IgG2 format of clone 069; also called IgG2 backbone variant of 069
B14: UniBody molecule of antibody 181 (other)
VH: QVQLVQSGAEVKKPGASVKVSCKASGYTFTSYGISWVRQAPGQGLEWMGWISTYNGYTNYAQKLQGRVTMTTDTSTSTAYMELRSLRSDDTAVYYCARDLRGTAYFDYWGQGTLVTVSS
VL: DIQMTQSPSSVSASVGDRVTITCRASQGISNWLAWYQHKPGKAPKLLIYAASSLLSGVPSRFSGSGSGTDFTLTISSLQPEDFATYYCQQANSFPITFGQGTRLEIK
B15: UniBody molecule of antibody 024 (other)
VH: EVQLLESGGGLVQPGGSLRLSCVASGFTFSSYAMSWVRQAPGKGLEWVSAISGSSGGSTYYVDSVKGRFTISRANSKNTLYLQMNSLRAEDTAVYYCAKDLDRGWMGYFGYWGQGTLVTVSS
VL: DIQMTQSPSSVSASVGDRVTITCRASQGISSWLAWYQHKPGKAPKLLIYAASSLQSGVPSRFSGSGSGTDFTLTISSLQPEDFATYYCQQANSFPTFGQGTRLEIK

Legend:
[1] = target: T1, human c-Met, membrane-bound on cells (human, UniProt P08581 25-1390); test: flow cytometry on A431 cells (PE goat anti-human IgG); bottom panel
T1 construct: whole, on cells; A431 cells carry on average 30,000 copies of c-Met per cell (Qifi); also called c-Met expressed on A431 cells; c-Met on A549 cells
Experimental: (§1) The binding of anti-c-Met antibodies and monovalent forms thereof (also termed “UniBody molecules” herein, see Example 5) to A431 cells expressing membrane-bound c-Met (purchased at ATCC, CRL-1555) was tested using flow cytometry (FACS Canto II, BD Biosciences). […] Binding of anti-c-Met antibodies and UniBody molecules was detected using a Phycoerythrin-conjugated goat-anti-human IgG antibody (Jackson). IgG1-5D5 was used as positive control antibody, and HuMab-KLH was used as isotype control antibody. EC₅₀ values were determined by means of non-linear regression (sigmoidal dose-response with variable slope) using GraphPad Prism V4.03 software (GraphPad Software, San Diego, Calif., USA).
(§2) Also maximum binding levels were unchanged between IgG1's and UniBody molecules. For antibodies 005, 006, 008, 035, 045 and 058, on the other hand, a more than 2-fold […] as well as a decrease in maximum binding level was observed when comparing IgG1 with their UniBody counterpart. This was most likely due to the […] (Kd) of these antibodies (see Example 14).

[2] = target: T1, human c-Met, membrane-bound on cells; test: flow cytometry on A431 cells
Experimental: as §1, §2

[3] = target: T1, human c-Met, membrane-bound on cells; test: flow cytometry on A431 cells (PE goat anti-human IgG); second panel
Experimental: as §1, §2

[4] = target: T1, human c-Met, membrane-bound on cells; test: flow cytometry on A431 cells (PE goat anti-human IgG); third panel
Experimental: as §1, §2

[5] = target: T2, rhHGF R/Fc Chimera (R&D Systems; Cat.358MT/CF) (human, UniProt P08581 25-932); test: ELISA on coated rhHGF R/Fc Chimera
T2 construct: Bought reagent; Fc part of the bought chimera not given; not described
Experimental: c-Met binding properties of the mutants were tested in an ELISA. ELISA plate wells were coated overnight at 4° C. with rhHGF R/Fc Chimera (R&D Systems; Cat.358MT/CF) in PBS (1 μg/mL). Next, the wells were washed with PBST (PBS supplemented with 0.05% Tween-20 [Sigma-Aldrich, Zwijndrecht, The Netherlands]) and blocked for one hour at room temperature (RT) with PBSTC (PBST supplemented 2% [v/v] chicken serum [Gibco, Paisley, Scotland]). Subsequently, the wells were washed with PBST and incubated for one hour at RT with the anti-cMet antibodies and variants serially diluted in PBSTC (10 μg/mL in 4-fold dilutions). […] After washing, the reaction was visualized by a 15 min incubation with 2,2′-azino-bis(3-ethylbenzothiazoline-6-sulfonic acid) (ABTS: dilute one ABTS tablet in 50 mL ABTS buffer [Roche Diagnostics, Almere, The Netherlands]) at RT protected from light. The colorization was stopped by adding an equal volume of oxalic acid (Sigma-Aldrich, Zwijndrecht, The Netherlands). […] at 405 nm was measured on a microtiter plate reader (Biotek Instruments, Winooski, USA).

T2 sequence (P08581 25-932, change not shown): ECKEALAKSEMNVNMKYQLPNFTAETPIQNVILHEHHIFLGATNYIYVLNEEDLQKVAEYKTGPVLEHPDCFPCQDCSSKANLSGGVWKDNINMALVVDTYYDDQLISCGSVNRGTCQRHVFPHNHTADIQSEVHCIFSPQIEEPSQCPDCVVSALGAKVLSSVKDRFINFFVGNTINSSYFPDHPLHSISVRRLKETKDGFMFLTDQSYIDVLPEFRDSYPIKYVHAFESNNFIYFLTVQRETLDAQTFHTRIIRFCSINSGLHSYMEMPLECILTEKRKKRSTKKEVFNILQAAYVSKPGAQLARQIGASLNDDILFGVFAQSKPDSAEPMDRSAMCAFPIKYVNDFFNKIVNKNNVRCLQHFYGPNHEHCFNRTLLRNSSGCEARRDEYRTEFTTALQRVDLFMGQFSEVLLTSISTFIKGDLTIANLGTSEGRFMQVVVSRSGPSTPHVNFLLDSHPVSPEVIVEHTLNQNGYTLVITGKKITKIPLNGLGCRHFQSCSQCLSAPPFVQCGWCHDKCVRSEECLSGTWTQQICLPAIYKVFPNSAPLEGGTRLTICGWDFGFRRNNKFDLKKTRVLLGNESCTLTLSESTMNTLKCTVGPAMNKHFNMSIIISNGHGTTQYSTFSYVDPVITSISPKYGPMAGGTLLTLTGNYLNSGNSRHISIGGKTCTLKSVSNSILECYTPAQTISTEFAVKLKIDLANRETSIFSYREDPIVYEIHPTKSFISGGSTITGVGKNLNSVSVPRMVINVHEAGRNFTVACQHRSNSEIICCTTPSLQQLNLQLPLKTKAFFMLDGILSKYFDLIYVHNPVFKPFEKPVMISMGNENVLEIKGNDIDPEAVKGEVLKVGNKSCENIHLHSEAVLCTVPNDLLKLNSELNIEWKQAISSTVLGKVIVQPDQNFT
T1 sequence (P08581 25-1390): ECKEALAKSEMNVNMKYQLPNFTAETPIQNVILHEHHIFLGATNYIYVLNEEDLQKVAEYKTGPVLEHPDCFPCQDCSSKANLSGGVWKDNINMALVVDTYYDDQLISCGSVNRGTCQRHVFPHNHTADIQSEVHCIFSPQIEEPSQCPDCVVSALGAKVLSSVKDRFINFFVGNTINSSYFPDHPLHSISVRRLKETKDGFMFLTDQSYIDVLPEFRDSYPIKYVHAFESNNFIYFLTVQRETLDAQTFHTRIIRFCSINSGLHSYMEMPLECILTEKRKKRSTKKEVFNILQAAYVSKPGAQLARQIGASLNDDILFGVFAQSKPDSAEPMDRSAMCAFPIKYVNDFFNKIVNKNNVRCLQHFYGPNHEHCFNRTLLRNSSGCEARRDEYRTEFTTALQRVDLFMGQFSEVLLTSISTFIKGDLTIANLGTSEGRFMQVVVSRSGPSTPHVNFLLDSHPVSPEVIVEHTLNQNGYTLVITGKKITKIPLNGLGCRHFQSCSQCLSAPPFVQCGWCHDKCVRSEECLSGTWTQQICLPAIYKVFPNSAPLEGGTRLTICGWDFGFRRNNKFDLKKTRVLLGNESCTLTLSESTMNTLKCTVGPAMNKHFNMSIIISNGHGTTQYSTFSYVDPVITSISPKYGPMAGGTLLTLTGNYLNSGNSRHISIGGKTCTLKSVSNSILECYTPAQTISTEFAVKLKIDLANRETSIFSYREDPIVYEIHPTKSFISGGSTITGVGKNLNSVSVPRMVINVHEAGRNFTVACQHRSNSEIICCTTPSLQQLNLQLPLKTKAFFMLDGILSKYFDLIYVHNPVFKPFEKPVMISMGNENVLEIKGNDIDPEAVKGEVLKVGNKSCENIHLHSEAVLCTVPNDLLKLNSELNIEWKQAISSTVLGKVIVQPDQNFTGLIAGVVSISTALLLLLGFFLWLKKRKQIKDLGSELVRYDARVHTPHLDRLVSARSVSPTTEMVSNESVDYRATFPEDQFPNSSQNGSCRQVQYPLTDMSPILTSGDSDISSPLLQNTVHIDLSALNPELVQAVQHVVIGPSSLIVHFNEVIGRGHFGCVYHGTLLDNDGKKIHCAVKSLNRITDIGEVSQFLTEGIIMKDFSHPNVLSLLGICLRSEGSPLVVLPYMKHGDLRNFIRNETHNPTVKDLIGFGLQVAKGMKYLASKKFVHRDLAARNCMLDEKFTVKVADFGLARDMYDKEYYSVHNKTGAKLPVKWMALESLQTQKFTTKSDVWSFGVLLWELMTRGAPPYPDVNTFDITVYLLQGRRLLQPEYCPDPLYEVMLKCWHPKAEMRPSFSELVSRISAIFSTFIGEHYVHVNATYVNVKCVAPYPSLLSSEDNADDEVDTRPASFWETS

Row | Binder | fold change of EC50, UniBody molecule against IgG1 of the identical clone [2] [fold] | EC50 [5] [µg/mL] | other results
1 | B1 | < 2 |  | EC50 [1]: 1.16 nM
2 | B2 | > 2 |  | EC50 [3]: 5.8 nM
3 | B3 | > 2 |  | EC50 [4]: 12.2 nM
4 | B4 | > 2 |  | EC50 [3]: 1.85 nM
5 | B5 | > 2 |  | EC50 [4]: 9.32 nM
6 | B6 | < 2 | 0.0301 | EC50 [1]: 0.6 nM
7 | B7 |  | 0.0156 | 
8 | B8 |  | 0.0154 | 
9 | B9 |  | 0.0188 | 
10 | B10 |  | 0.023 | 
11 | B11 |  | 0.0142 | 
12 | B12 |  | 0.0189 | 
13 | B13 |  | 0.0296 | 
14 | B14 | < 2 |  | EC50 [1]: 0.847 nM
15 | B15 | < 2 |  | EC50 [4]: 2.42 nM
